Measurements taken from US20080311122A1, “Antagonists of Hmgb1 and/or Rage and Methods of Use Thereof” (Medimmune, LLC, priority 2005, published 2008).

T1: recombinant HMG1 purified from E. coli as a calmodulin binding protein (CBP) fusion protein (human)
T1 chain: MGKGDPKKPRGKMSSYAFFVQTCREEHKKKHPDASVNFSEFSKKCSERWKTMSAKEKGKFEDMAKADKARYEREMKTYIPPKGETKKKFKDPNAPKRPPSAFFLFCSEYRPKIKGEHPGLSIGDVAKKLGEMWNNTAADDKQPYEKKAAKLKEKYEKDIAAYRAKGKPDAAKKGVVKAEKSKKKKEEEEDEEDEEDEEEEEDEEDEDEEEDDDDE


Biological target: T1, recombinant HMG1 purified from E. coli …
Test: BIAcore, mAb immobilized, HMG1 injected, steady-state model
Conditions: remark: other sources report otherwise

| Kd | Binder |
| --- | --- |
| 331 nM | anti-HMG1 antibody S17 (antibody, V domains shown) VH: EVQLLESGGGLVQPGGSLRLSCAASGFTFSYYDMHWVRQAPGKGLEWVSRISPSGGYTWYADSVKGRFTISRDNSKNTLYLQMNSLRAEDTAVYYCTRGRYTSGWHEYFDPWGQGTLVTVSS VL: AQDIQMTQSPSSLSASVGDRVTITCRASQSIGTYLNWYQQKPGTAPKVLIYAASSLQSGVPSRFSGSGSGTDFTLTISSLQPEDFSTYYCQQSYNTPRTFGQGTKLEIK |
| 101 nM | anti-HMG1 antibody G2 (antibody, V domains shown) VH: EVQLLESGGGLVQPGGSLRLSCAASGFTFSWYKMQWVRQAPGKGLEWVSGISPSGGSTAYADSVKGRFTISRDNSKNTLYLQMNSLRAEDTAVYYCAKMGLFNTGNSYVDYWGQGTLVTVSS VL: AQSELTQPPSVSEAPGQRVTISCSGSTSNIGNNAVIWYQQLPGKAPKLLIYYDDLLPSGVSDRFSGSKSGTSGSLAISGLQSEDEADYYCASWDDNLNGPLFGGGTKLTVL |
| 114 nM | anti-HMG1 antibody G20 (antibody, V domains shown) VH: EVQLLESGGGLVQPGGSLRLSCAASGFTFSWYDMFWVRQAPGKGLEWVSWISPSGGYTKYADSVKGRFTISRDNSKNTLYLQMNSLRAEDTAMYYCARSGLDYYDSSGYLDAFDIWGQGTMVTVSS VL: AQDIQMTQSPSSVSASVGDRVTITCRASQDVSIWLAWYQQKPGKAPKLLIFGASRLQSGVPSRFSGSRSGADFTLTIDSVQPEDFASYYCQQADSFPLTFGGGTKVEIK |
